Data as given in patent US20160281093, “METHODS AND COMPOSITIONS FOR INTERFERENCE WITH DNA POLYMERASE AND DNA SYNTHESIS” (GEORGIA STATE UNIVERSITY RESEARCH FOUNDATION, INC., published 2016).

Target: E. coli DNA polymerase I (Escherichia coli, UniProt P00582 P00582:1-928)
Experiment: EMSA; Kd stated as determined from binding curves but value not given; RNA 50 nM, pol 0-80 nM, 10 mM KCl, 1 mM DTT, 5% glycerol, pH 7.0
Details: tags: New England Biolabs; label: body-labeled 32P
Protocol: A mixture (5 μL) containing bodily ³²P-labeled RNA 69-mer (50 nM, final), DNA polymerase I (0, 20, 40, 60, or 80 nM), and binding buffer (final: 10 mM KCl, 1 mM DTT, 5% glycerol, pH 7.0) was incubated at room temperature for 30 minutes and then placed at 4° C. overnight. The binding solutions were mixed with the gel loading dye (final: 10 mM KCl, 1 mM DTT, 5% glycerol, 0.001% xylene blue w/v) and then loaded on 10% non-denaturing polyacrylamide gel in the running buffer (5 mM Tris-HCl, 10 mM EDTA, and pH 7.5). The gel was pre-run for 1 hour at 250 volts. After loading the samples, the gel was run with a constant voltage (250 volts) for one hour; all operations were performed in 4° C. cold room. The gel was fixed with 7% acetic acid (in methanol), dried, and scanned. The radioactive bands were quantified by phosphorimager using image quantifying software. […] Dissociation constant was determined from the binding curves.
A mixture (5 μL) containing bodily ³²P-labeled RNA 69-mer (50 nM, final), DNA polymerase I (0, 20, 40, 60, or 80 nM), and binding buffer (final: 10 mM KCl, 1 mM DTT, 5% glycerol, pH 7.0) was incubated at room temperature for 30 minutes and then placed at 4° C. overnight. […] The radioactive bands were quantified by phosphorimager using image quantifying software. […] Dissociation constant was determined from the binding curves.

Sequence of E. coli DNA polymerase I (P00582 whole entry, one chain of several): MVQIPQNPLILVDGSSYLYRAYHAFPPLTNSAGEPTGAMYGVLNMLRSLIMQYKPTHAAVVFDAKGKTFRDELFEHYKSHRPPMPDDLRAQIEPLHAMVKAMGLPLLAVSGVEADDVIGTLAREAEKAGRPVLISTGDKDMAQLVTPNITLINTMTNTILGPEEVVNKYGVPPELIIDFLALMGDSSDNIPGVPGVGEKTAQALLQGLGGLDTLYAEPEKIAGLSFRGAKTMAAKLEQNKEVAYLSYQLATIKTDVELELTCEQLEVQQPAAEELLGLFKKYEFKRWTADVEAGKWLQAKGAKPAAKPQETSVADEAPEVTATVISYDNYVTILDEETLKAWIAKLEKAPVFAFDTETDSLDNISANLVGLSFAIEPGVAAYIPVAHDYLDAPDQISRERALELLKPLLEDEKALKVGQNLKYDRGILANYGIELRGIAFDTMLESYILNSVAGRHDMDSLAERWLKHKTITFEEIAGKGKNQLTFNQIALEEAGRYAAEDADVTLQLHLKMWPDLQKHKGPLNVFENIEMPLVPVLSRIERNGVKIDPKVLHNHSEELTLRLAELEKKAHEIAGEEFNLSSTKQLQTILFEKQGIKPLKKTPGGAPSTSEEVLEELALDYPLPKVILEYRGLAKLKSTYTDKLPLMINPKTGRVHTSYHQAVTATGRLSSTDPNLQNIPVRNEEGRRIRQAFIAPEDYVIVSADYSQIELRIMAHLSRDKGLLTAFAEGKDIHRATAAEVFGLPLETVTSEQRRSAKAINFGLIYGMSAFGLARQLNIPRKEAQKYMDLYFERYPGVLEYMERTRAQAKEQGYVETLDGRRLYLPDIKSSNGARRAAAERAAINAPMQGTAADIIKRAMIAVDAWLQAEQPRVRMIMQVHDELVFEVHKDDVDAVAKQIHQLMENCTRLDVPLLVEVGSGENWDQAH

B1: RNA-69mer (ssRNA)
RNA: GGGAGCCCUGUCACCGGAUGUGCUUUCCGGUCUGAUGAGUCCGUGAGGACAAAACAGGGCUCCCGAAUU
  binding result: binds
